This note sets out measurements from patent publication US20240383967A1 (UNIVERSITY OF SOUTHERN CALIFORNIA, published 2024).

A word on the Ki: it is a dissociation constant, usually derived from enzyme kinetics or from competition with a known ligand.

Assay [1] has as its target T1, Recombinant human CTSL (human, UniProt P07711 114-333).
T1 construct: Bought; also called cathepsin L
Put plainly: ratio of Ki values from fluorogenic protease activity assays.

The target in assay [2] is T1, Recombinant human CTSL. Put plainly: fluorogenic protease activity assay (Z-FR-AMC), initial rates fitted to the competitive inhibition equation. How it is done:
(§1) The inhibition activity of Her-HC-CTSSpp IgG was then examined with human CTSS through fluorescence-based activity assays using a fluorogenic peptide substrate Z-VVR-AMC (FIG. 5). […] CTSS and CTSL belong to the same subfamily of cathepsins. And the propeptide of proCTSS is a known inhibitor of CTSL (28,29). Therefore, the activity of Her-HC-CTSSpp IgG in inhibiting human CTSL was evaluated with a fluorogenic peptide substrate Z-FR-AMC (FIG. 5). […] To further study inhibition specificity of Her-HC-CTSSpp IgG, fluorescence-based activity assays for human CTSB and bovine trypsin were carried out in the absence or presence of Her-HC-CTSSpp IgG.
(§2) Next, inhibition potency and specificity of the designed Syn-LC-CTSSpp Fab antibody were analyzed by fluorescence-based proteolytic activity assays. […] Likewise, Syn-LC-CTSSpp Fab functions as a weaker antibody inhibitor against human CTSL.

Another assay has as its target T2, Recombinant human CTSS (human, UniProt P25774 115-331).
T2 construct: Bought from R&D Systems (1183-CY-010); also called cathepsin S
The assay can be described thus: fluorogenic protease activity assay (Z-VVR-AMC), initial rates fitted to the competitive inhibition equation. How it is done: as §1, §2

T1 sequence (P07711 114-333): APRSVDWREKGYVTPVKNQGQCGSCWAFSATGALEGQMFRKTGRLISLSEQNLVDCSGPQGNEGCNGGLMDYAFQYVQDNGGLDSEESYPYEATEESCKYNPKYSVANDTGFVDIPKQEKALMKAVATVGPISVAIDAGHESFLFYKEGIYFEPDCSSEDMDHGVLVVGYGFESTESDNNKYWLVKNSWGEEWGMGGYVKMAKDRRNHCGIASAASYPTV

B1: Syn-LC-CTSSpp Fab (Fab)
light: QLHKDPTLDHHWHLWKKTYGKQYKEKNEEAVRRLIWEKNLKFVMLHNLEHSMGMHSYDLGMNHLGDMTSEEVMSLMSSLRVPSQWQRNITYKSNPNRGGGGSDIQMTQSPSTLSASVGDRVTITCKCQLSVGYMHWYQQKPGKAPKLLIYDTSKLASGVPSRFSGSGSGTEFTLTISSLQPDDFATYYCFQGSGYPFTFGGGTKLEIKRTVAAPSVFIFPPSDEQLKSGTASVVCLLNNFYPREAKVQWKVDNALQSGNSQESVTEQDSKDSTYSLSSTLTLSKADYEKHKVYACEVTHQGLSSPVTKSFNRGEC
heavy: QVTLRESGPALVKPTQTLTLTCTFSGFSLSTSGMSVGWIRQPPGKALEWLADIWWDDKKDYNPSLKSRLTISKDTSKNQVVLKVTNMDPADTATYYCARSMITNWYFDVWGAGTTVTVSSASTKGPSVFPLAPSSKSTSGGTAALGCLVKDYFPEPVTVSWNSGALTSGVHTFPAVLQSSGLYSLSSVVTVPSSSLGTQTYICNVNHKPSNTKVDKKVEPKSCDKTHT
Turning to B1, in the assay with Recombinant human CTSL [1], the “fold decrease of potency for CTSL in comparison to CTSS” value was about 12 fold. Also, the inhibitory constant (Ki) worked out at 24.5 nM with Recombinant human CTSL [2] and 2.12 nM with Recombinant human CTSS.

B2: Her-HC-CTSSpp IgG (antibody)
heavy: EVQLVESGGGLVQPGGSLRLSCAASGFNIKDTYIHWVRQAPGKGLEWVARIYPTNGYTRYADSVKGRFTISADTSKNTAYLQMNSLRAEDTAVYYCSRGGSGAKLAALKAKLAALKCGGGGSIEGRQLHKDPTLDHHWHLWKKTYGKQYKEKNEEAVRRLIWEKNLKFVMLHNLEHSMGMHSYDLGMNHLGDMTSEEVMSLMSSLRVPSQWQRNITYKSNPNRGGGGSCELAALEAELAALEAGGSGDYWGQGTLVTVSSASTKGPSVFPLAPSSKSTSGGTAALGCLVKDYFPEPVTVSWNSGALTSGVHTFPAVLQSSGLYSLSSVVTVPSSSLGTQTYICNVNHKPSNTKVDKKVEPKSCDKTHTCPPCPAPPVAGPSVFLFPPKPKDTLMISRTPEVTCVVVDVSHEDPEVKFNWYVDGVEVHNAKTKPREEQYNSTYRVVSVLTVLHQDWLNGKEYKCKVSNKGLPSSIEKTISKAKGQPREPQVYTLPPSRDELTKNQVSLTCLVKGFYPSDIAVEWESNGQPENNYKTTPPVLDSDGSFFLYSKLTVDKSRWQQGNVFSCSVMHEALHNHYTQKSLSLSPGK
light: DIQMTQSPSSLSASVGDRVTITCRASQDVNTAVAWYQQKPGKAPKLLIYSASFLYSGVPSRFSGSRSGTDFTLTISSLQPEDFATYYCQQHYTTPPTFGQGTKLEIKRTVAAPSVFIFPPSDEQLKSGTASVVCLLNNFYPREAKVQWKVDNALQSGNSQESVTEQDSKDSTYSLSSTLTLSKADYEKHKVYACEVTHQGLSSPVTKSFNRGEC
notes: Full-length IgG expressed in Expi293F cells and purified on protein G. The propeptide of proCTSS is grafted into CDR3H of the anti-HER2 antibody Herceptin
In the case of B2, the Ki is 49.3 nM in the assay with Recombinant human CTSL [2] and 6.03 nM in the assay with Recombinant human CTSS.
